# Assay results published in PMC5349785 (Molecular Biology of the Cell, 2017).
# B1: Vps17 (natural protein)
# chain: MTSAVPYDPYDDLDNNPFAEPQEEDSEPAATTTDGSSSMSEERVGTEQTAASVQDNGTANNIQNGLGEEGNATRSKTSNEHNENQQPSQPSERVILPERSDEKKKYTLLAKVTGLERFGSATGKKENPTIIFDCSTNLPTFRKQQYKNVKKSYEEFHQLFKYLNVAIQESFVPTLPSAYTTFGINSEEDRMKVTRNFQLWFNRLSQDPLIIRNEEVAFFIESDFNTYTPINKSKSLASGLKRKTLKQLAPPYDEITELAEFRPLVKSIYVVSQSLQEKLLRVSRNRKMMVQEENAFGQDFVNLDEHNKLYRRYGKILTAVGDIDSIIATMDMATLYDGLEWIVRDAYAVKEALTNRHFIMRNLVQAQQNSKAKQEQARRFRSRRDINPMKIDEALRQLKAAAKNEQVLTLKLQRITSNMIIERKQWISWYEEWIRSSIKEFTLRKIEYERKKLTLLERVRSDIRKADENGGLSRLGRHAVSNNNSDTSQTLKGDSWTGESNRKSQIPINKIAHTEFDDELFTEDDGYNSQDSDTTSLNARHAASLLGMSTK
# B2: GST-tagged Ypt7 (natural protein)
# chain: MSSRKKNILKVIILGDSGVGKTSLMHRYVNDKYSQQYKATIGADFLTKEVTVDGDKVATMQVWDTAGQERFQSLGVAFYRGADCCVLVYDVTNASSFENIKSWRDEFLVHANVNSPETFPFVILGNKIDAEESKKIVSEKSAQELAKSLGDIPLFLTSAKNAINVDTAFEEIARSALQQNQADTEAFEDDYNDAINIRLDGENNSCSC
# Key:
# [1] = biological target: T1, Vps5 with C-terminal TAP tag (S. cerevisiae, UniProt Q92331 1-675); assay: tandem affinity purification
# T1 sequence: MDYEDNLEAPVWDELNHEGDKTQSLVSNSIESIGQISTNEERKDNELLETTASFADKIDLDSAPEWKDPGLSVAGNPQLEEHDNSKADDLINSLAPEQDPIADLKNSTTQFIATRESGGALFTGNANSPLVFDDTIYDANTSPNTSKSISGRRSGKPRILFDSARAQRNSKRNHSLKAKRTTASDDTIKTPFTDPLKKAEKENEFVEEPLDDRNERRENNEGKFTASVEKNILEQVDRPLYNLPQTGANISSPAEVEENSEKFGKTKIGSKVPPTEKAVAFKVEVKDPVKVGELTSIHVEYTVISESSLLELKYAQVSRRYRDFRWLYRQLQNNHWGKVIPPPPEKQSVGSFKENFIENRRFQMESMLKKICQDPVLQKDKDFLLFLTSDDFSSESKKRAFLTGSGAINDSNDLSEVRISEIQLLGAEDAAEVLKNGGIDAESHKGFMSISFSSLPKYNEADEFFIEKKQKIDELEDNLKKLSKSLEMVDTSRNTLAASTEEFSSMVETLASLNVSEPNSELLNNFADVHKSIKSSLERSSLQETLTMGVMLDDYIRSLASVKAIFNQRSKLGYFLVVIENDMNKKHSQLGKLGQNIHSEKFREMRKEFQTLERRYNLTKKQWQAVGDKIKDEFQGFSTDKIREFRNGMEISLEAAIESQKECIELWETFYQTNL
# [2] = biological target: CSC with GFP-tagged Vps29 (CSC-GFP) (S. cerevisiae, UniProt P34110;P40335;P38759); assay: pull-down
# [3] = biological target: cargo selection complex (CSC; Vps35, Vps26, Vps29) (S. cerevisiae, UniProt P34110;P40335;P38759); assay: pull-down
Binder,binding result [1],binding result [2],binding result [3]
B1,binds,,
B2,,binds,binds
